This data set in a line: self-splicing fitness, log relative to wild type (ln ratio); higher = more splicing; Tetrahymena group I intron in knt gene, E. coli kanamycin selection, DiMSum; sequences stand for … in CUCUCU…GGAGGGAAAAGUUAUCAGGCAUGCACCUGGUAGCUAGUCUUUAAACCAAUAGAUUGCAUCGGUUUAAAAGGCAAGACCGUCAAAUUGCGGGAAAGGGGUCAACAGCCGUUCAGUACCAAGUCUCAGGGGAAACUUUGAGAUGGCCUUGCAAAGGGUAUGGUAAUAAGCUGACGGACAUGGUCCUAACCACGCAGCCAAGUCCUAAGUCAACAGAUCUUCUGUUGAUAUGGAUGCAGUUCACAGACUAAAUGUCGGUCGGGGAAGAUGUAUUCUUCUCAUAAGAUAUAGUCGGACCUCUCCUUAAUGGGAGCUAGCGGAUGAAGUGAUGCAACACUGGAGCCGCUGGGAACUAAUUUGUAUGCGAAAGUAUAUUGAUUAGUUUUGGAGUACUCGUGGUCG
In short, it runs like this:
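Six replicate transformations of E. coli BL21(DE3) with a pET-22b(+) library were grown overnight at 37°C or 30°C. The library randomised all eight P1ex-region intron nucleotides, the intron lying in the knt kanamycin-resistance gene, and plates were LB agar with or without 25 μg/mL kanamycin plus 100 μg/mL carbenicillin, 50 μM IPTG and 0.2% rhamnose. Pooled colonies were amplicon-sequenced on an Illumina HiSeq 2500, and fitness is the DiMSum error-weighted combination of wild-type-normalised replicate fold changes, kanamycin versus none.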

± gives the uncertainty stated by the source.

As for UGGCAGCAAUAUUACGCCAG, the “self-splicing fitness (ln)” value is -1.46 ± 0.14 (30 °C) and -1.59 ± 0.21 (37 °C). In the case of UGGCAGCAAUAUUACGCCGG, the “self-splicing fitness (ln)” value is, setting by setting: (30 °C) -1.64 ± 0.14; (37 °C) -0.838 ± 0.2.

Regarding UGGCAGCAAUAUUACGGAAC, the “self-splicing fitness (ln)” value is, setting by setting: (30 °C) -2.89 ± 0.36; (37 °C) -1.72 ± 0.21. For the sequence UGGCAGCAAUAUUACGGAAG, the “self-splicing fitness (ln)” value is -1.78 ± 0.13 (30 °C) and -0.447 ± 0.12 (37 °C). For UGGCAGCAAUAUUACGGGUG the same measures were -0.883 ± 0.071 and -0.596 ± 0.088. For UGGCAGCAAUAUUACGGUAA the same measures were -0.651 ± 0.089 and 0.0797 ± 0.093. As for UGGCAGCAAUAUUACGGUCU, the “self-splicing fitness (ln)” value runs as follows: (30 °C) -0.537 ± 0.066; (37 °C) 0.29 ± 0.087. For UGGCAGCAAUAUUACGUACG the same measures were -0.616 ± 0.077 and -0.265 ± 0.12. For UGGCAGCAAUAUUACGUGUA the same measures were -1.54 ± 0.089 and -0.712 ± 0.084. As to UGGGAGCAAUAUUACGAAAU, the “self-splicing fitness (ln)” value (30 °C) was -1.47 ± 0.19.

For UGGGAGCAAUAUUACGAACG, the “self-splicing fitness (ln)” value (30 °C) was -1.07 ± 0.1 and the “self-splicing fitness (ln)” value (37 °C) is -0.54 ± 0.16. For UGGGAGCAAUAUUACGAGAU the same measures were -1.91 ± 0.27 and -2.04 ± 0.47. Take UGGGAGCAAUAUUACGAUCC: the “self-splicing fitness (ln)” value (30 °C) is -1.41 ± 0.39. Turning to UGGGAGCAAUAUUACGAUGA, the “self-splicing fitness (ln)” value (37 °C) is -1.63 ± 0.42.

Regarding UGGGAGCAAUAUUACGCCCA, the “self-splicing fitness (ln)” value (30 °C) is -1.61 ± 0.4. Take UGGGAGCAAUAUUACGCCUU: the “self-splicing fitness (ln)” value by setting is: (30 °C) -2.66 ± 0.26; (37 °C) -1.66 ± 0.31. For UGGGAGCAAUAUUACGCGGC, the “self-splicing fitness (ln)” value is, setting by setting: (30 °C) -2.57 ± 0.34; (37 °C) -1.35 ± 0.28.

UGGGAGCAAUAUUACGCUCC: the “self-splicing fitness (ln)” value (37 °C) is -2.7 ± 0.44.

As for UGGGAGCAAUAUUACGCUGU, the “self-splicing fitness (ln)” value (37 °C) is -1.2 ± 0.41. Turning to UGGGAGCAAUAUUACGGCAA, the “self-splicing fitness (ln)” value by setting is: (30 °C) -2.97 ± 0.47; (37 °C) -0.863 ± 0.32. For UGGGAGCAAUAUUACGGGAG the same measures were -2.83 ± 0.25 and -2.94 ± 0.43. As for UGGGAGCAAUAUUACGGGGC, the “self-splicing fitness (ln)” value is, setting by setting: (30 °C) -2.62 ± 0.48; (37 °C) -2.07 ± 0.34. Consider UGGGAGCAAUAUUACGGUAA, for which, for the setting “30 °C”, the “self-splicing fitness (ln)” value is -2.32 ± 0.45.

For the sequence UGGGAGCAAUAUUACGGUCA, the “self-splicing fitness (ln)” value (30 °C) is -0.375 ± 0.12 and the “self-splicing fitness (ln)” value (37 °C) is -0.291 ± 0.14. As to UGGGAGCAAUAUUACGGUUC, the “self-splicing fitness (ln)” value (37 °C) is -0.762 ± 0.44.

UGGGAGCAAUAUUACGUGAC: under “37 °C”, the “self-splicing fitness (ln)” value was -2.53 ± 0.44. Regarding UGGGAGCAAUAUUACGUUAU, the “self-splicing fitness (ln)” value (30 °C) is -3.22 ± 0.27 and the “self-splicing fitness (ln)” value (37 °C) is -1.86 ± 0.34. For UGGGAGCAAUAUUACGUUGG the same measures were -3.45 ± 0.22 and -2.85 ± 0.26. UGGGAGCAAUAUUACGUUUU: the “self-splicing fitness (ln)” value is, setting by setting: (30 °C) -4.43 ± 0.4; (37 °C) -2.51 ± 0.33. For UGGUAGCAAUAUUACGAAAU the same measures were -2.72 ± 0.28 and -3.17 ± 0.31. As for UGGUAGCAAUAUUACGAAUG, the “self-splicing fitness (ln)” value was -1.95 ± 0.12 (30 °C) and -1.02 ± 0.12 (37 °C). Regarding UGGUAGCAAUAUUACGAGUC, the “self-splicing fitness (ln)” value (37 °C) is -2.29 ± 0.32. With UGGUAGCAAUAUUACGAGUU, the “self-splicing fitness (ln)” value (30 °C) is -2.91 ± 0.24 and the “self-splicing fitness (ln)” value (37 °C) is -2.75 ± 0.24. For UGGUAGCAAUAUUACGAUAG the same measures were -1.94 ± 0.2 and -0.14 ± 0.14. For UGGUAGCAAUAUUACGCAAA the same measures were -2.06 ± 0.29 and -1.59 ± 0.17.

In the case of UGGUAGCAAUAUUACGCAGU, the “self-splicing fitness (ln)” value (30 °C) is -3.14 ± 0.4 and the “self-splicing fitness (ln)” value (37 °C) was -2.76 ± 0.4. With UGGUAGCAAUAUUACGCAUG, the “self-splicing fitness (ln)” value was -1.33 ± 0.1 (30 °C) and 0.872 ± 0.14 (37 °C). With UGGUAGCAAUAUUACGCAUU, the “self-splicing fitness (ln)” value was -1.88 ± 0.15 (30 °C) and -1.66 ± 0.19 (37 °C). Turning to UGGUAGCAAUAUUACGCGCC, the “self-splicing fitness (ln)” value is -1.45 ± 0.3 (30 °C) and -2.02 ± 0.42 (37 °C).

For UGGUAGCAAUAUUACGCGGA, the “self-splicing fitness (ln)” value by setting is: (30 °C) -1.86 ± 0.15; (37 °C) -0.911 ± 0.17. For UGGUAGCAAUAUUACGCUAA the same measures were -1.37 ± 0.14 and -0.667 ± 0.16. For UGGUAGCAAUAUUACGGAUC the same measures were -2.25 ± 0.23 and -1.65 ± 0.32. Turning to UGGUAGCAAUAUUACGGCAC, the “self-splicing fitness (ln)” value (37 °C) is -1.39 ± 0.44.

Turning to UGGUAGCAAUAUUACGGCUC, the “self-splicing fitness (ln)” value is, setting by setting: (30 °C) -0.912 ± 0.12; (37 °C) -0.984 ± 0.14. As for UGGUAGCAAUAUUACGGGUG, the “self-splicing fitness (ln)” value reads like this: (30 °C) -1.26 ± 0.1; (37 °C) -0.609 ± 0.08.

For the sequence UGGUAGCAAUAUUACGGUCC, the “self-splicing fitness (ln)” value was -2.05 ± 0.29 (30 °C) and -1.24 ± 0.33 (37 °C). In the case of UGGUAGCAAUAUUACGGUCG, the “self-splicing fitness (ln)” value was -0.382 ± 0.12 (30 °C) and -0.0256 ± 0.16 (37 °C). UGGUAGCAAUAUUACGUAGU: the “self-splicing fitness (ln)” value is -3.23 ± 0.22 (30 °C) and -1.04 ± 0.18 (37 °C). Consider UGGUAGCAAUAUUACGUGCA, for which the “self-splicing fitness (ln)” value by setting is: (30 °C) -0.653 ± 0.11; (37 °C) -1.27 ± 0.1.

Take UGGUAGCAAUAUUACGUGGC: the “self-splicing fitness (ln)” value is, setting by setting: (30 °C) -3.64 ± 0.32; (37 °C) -3.04 ± 0.34. In the case of UGGUAGCAAUAUUACGUGUA, the “self-splicing fitness (ln)” value runs as follows: (30 °C) -2.09 ± 0.13; (37 °C) -0.721 ± 0.1. For UGGUAGCAAUAUUACGUUAU the same measures were -3.29 ± 0.28 and -3.33 ± 0.31. For UGGUAGCAAUAUUACGUUCU the same measures were -1.48 ± 0.12 and -0.725 ± 0.14.

Turning to UGUAAGCAAUAUUACGAAAA, the “self-splicing fitness (ln)” value (30 °C) is -1.7 ± 0.15 and the “self-splicing fitness (ln)” value (37 °C) is -1.15 ± 0.16.

Turning to UGUAAGCAAUAUUACGAAAU, the “self-splicing fitness (ln)” value (30 °C) was -2.47 ± 0.18 and the “self-splicing fitness (ln)” value (37 °C) is -0.0192 ± 0.17. UGUAAGCAAUAUUACGAAGU: the “self-splicing fitness (ln)” value (30 °C) was -3.23 ± 0.47 and the “self-splicing fitness (ln)” value (37 °C) is -2.46 ± 0.35. Regarding UGUAAGCAAUAUUACGACCG, the “self-splicing fitness (ln)” value runs as follows: (30 °C) 0.431 ± 0.12; (37 °C) 0.133 ± 0.18.

Consider UGUAAGCAAUAUUACGCACG, for which the “self-splicing fitness (ln)” value reads like this: (30 °C) -0.966 ± 0.092; (37 °C) -0.234 ± 0.11. For UGUAAGCAAUAUUACGCAGU the same measures were -2.92 ± 0.22 and -2.22 ± 0.24.

In the case of UGUAAGCAAUAUUACGCAUU, the “self-splicing fitness (ln)” value was -3.58 ± 0.28 (30 °C) and -2.08 ± 0.24 (37 °C).

Turning to UGUAAGCAAUAUUACGCCAA, the “self-splicing fitness (ln)” value runs as follows: (30 °C) -2.77 ± 0.26; (37 °C) -1.34 ± 0.2.

Regarding UGUAAGCAAUAUUACGCCAG, the “self-splicing fitness (ln)” value by setting is: (30 °C) -1.82 ± 0.34; (37 °C) -1.07 ± 0.33. For UGUAAGCAAUAUUACGCCUG the same measures were 0.084 ± 0.088 and -0.11 ± 0.1.

On to UGUAAGCAAUAUUACGCGAU, for which the “self-splicing fitness (ln)” value by setting is: (30 °C) -3.35 ± 0.29; (37 °C) -1.25 ± 0.21.

For the sequence UGUAAGCAAUAUUACGCUCA, the “self-splicing fitness (ln)” value was -0.207 ± 0.11 (30 °C) and 0.681 ± 0.18 (37 °C). On to UGUAAGCAAUAUUACGCUGG, for which the “self-splicing fitness (ln)” value runs as follows: (30 °C) -1.24 ± 0.15; (37 °C) -1.85 ± 0.19. As to UGUAAGCAAUAUUACGGAGC, for the setting “30 °C”, the “self-splicing fitness (ln)” value was -2.11 ± 0.33. Regarding UGUAAGCAAUAUUACGGAGU, the “self-splicing fitness (ln)” value (30 °C) was -2.24 ± 0.22 and the “self-splicing fitness (ln)” value (37 °C) is -1.58 ± 0.33.

For UGUAAGCAAUAUUACGGAUA, the “self-splicing fitness (ln)” value (30 °C) is -1.38 ± 0.11 and the “self-splicing fitness (ln)” value (37 °C) is -1.27 ± 0.12.

Regarding UGUAAGCAAUAUUACGGAUC, the “self-splicing fitness (ln)” value runs as follows: (30 °C) -1.45 ± 0.18; (37 °C) -0.457 ± 0.36. With UGUAAGCAAUAUUACGGCAA, the “self-splicing fitness (ln)” value is, setting by setting: (30 °C) -0.056 ± 0.1; (37 °C) 0.0443 ± 0.12. UGUAAGCAAUAUUACGGCUG: the “self-splicing fitness (ln)” value runs as follows: (30 °C) 0.2 ± 0.1; (37 °C) -0.152 ± 0.11.

Regarding UGUAAGCAAUAUUACGGGAA, the “self-splicing fitness (ln)” value (30 °C) was -2.12 ± 0.17 and the “self-splicing fitness (ln)” value (37 °C) is -2.08 ± 0.18. As for UGUAAGCAAUAUUACGGGAG, the “self-splicing fitness (ln)” value (30 °C) is -3.47 ± 0.24 and the “self-splicing fitness (ln)” value (37 °C) was -1.94 ± 0.25. For UGUAAGCAAUAUUACGGGGC the same measures were -3.63 ± 0.23 and -3.24 ± 0.25. For the sequence UGUAAGCAAUAUUACGGUAG, the “self-splicing fitness (ln)” value (30 °C) was -2.05 ± 0.12 and the “self-splicing fitness (ln)” value (37 °C) is -1.34 ± 0.13. UGUAAGCAAUAUUACGGUGA: the “self-splicing fitness (ln)” value was -2.08 ± 0.11 (30 °C) and -0.909 ± 0.13 (37 °C). For UGUAAGCAAUAUUACGGUGG the same measures were -3.54 ± 0.19 and -1.27 ± 0.13. For UGUAAGCAAUAUUACGUAUC, the “self-splicing fitness (ln)” value by setting is: (30 °C) -3.17 ± 0.23; (37 °C) -2.13 ± 0.24.
